# Measured values as given in US20210388110A1 (published 2021).
# Target: T1, soluble human GPC3 (human, UniProt P51654 25-563, limits assumed)
# T1 construct: soluble human GPC3 as analyte; also called glypican 3
# Assay: SPR (Biacore), soluble human GPC3
# T1 sequence (P51654 other isoform, or with tags, fused parts or gaps limits assumed, form in doubt): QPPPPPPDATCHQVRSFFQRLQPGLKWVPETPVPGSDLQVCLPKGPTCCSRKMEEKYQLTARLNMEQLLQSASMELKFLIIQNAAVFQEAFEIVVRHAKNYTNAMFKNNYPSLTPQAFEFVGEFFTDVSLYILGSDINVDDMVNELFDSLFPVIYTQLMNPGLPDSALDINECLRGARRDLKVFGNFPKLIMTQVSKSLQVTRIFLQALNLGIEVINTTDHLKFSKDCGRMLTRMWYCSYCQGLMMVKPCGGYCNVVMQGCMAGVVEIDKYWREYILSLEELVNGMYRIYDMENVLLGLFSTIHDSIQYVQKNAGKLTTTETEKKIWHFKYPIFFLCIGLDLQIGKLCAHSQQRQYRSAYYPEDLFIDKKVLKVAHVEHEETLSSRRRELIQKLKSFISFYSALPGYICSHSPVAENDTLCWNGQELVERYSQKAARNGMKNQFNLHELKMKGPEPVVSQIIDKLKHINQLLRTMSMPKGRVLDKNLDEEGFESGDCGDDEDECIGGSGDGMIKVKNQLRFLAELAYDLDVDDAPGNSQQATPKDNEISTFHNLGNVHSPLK
row,Binder,Kd
1,"H0610-G1dh/none-Hi-Kn010G3/L0167-k0 (antibody, human IgG1, kappa, single-arm (one Fab)) heavy: not shown EPKSSDKTHTCPPCPAPELLGGPSVFLFPPKPKDTLMISRTPEVTCVVVDVSHEDPEVKFNWYVDGVEVHNAKTKPREEQYNSTYRVVSVLTVLHQDWLNGKEYKCKVSNKALPAPIEKTISKAKGQPREPQVCTLPPSRDELTKNQVSLWCLVKGFYPSDIAVEWESNGQPENNYKTTPPVLDSDGSFFLYSKLTVDKSRWQQGNVFSCSVMHEALHNRYTQKSLSLSP light: DIVMTQSPLSLPVTPGEPASISCRSSQSLVHSNRNTYLHWYQQKPGQAPRLLIYKVSNRFSGVPDRFSGSGSGTDFTLKISRVEAEDVGVYYCGQSTQVPYTFGQGTKLEIKRTVAAPSVFIFPPSDEQLKSGTASVVCLLNNFYPREAKVQWKVDNALQSGNSQESVTEQDSKDSTYSLSSTLTLSKADYEKHKVYACEVTHQGLSSPVTKSFNRGEC",0.211 nM
2,"H0610-G1dh/none-Hi-Kn010G3/L0168-k0 (antibody, human IgG1, kappa, single-arm (one Fab)) heavy: not shown EPKSSDKTHTCPPCPAPELLGGPSVFLFPPKPKDTLMISRTPEVTCVVVDVSHEDPEVKFNWYVDGVEVHNAKTKPREEQYNSTYRVVSVLTVLHQDWLNGKEYKCKVSNKALPAPIEKTISKAKGQPREPQVCTLPPSRDELTKNQVSLWCLVKGFYPSDIAVEWESNGQPENNYKTTPPVLDSDGSFFLYSKLTVDKSRWQQGNVFSCSVMHEALHNRYTQKSLSLSP light: DIVMTQSPLSLPVTPGEPASISCRSSQSLVHSNRNTYLHWYQQKPGQAPRLLIYKVSNRFSGVPDRFSGSGSGTDFTLKISRVEAEDVGVYYCGQTTQVPYTFGQGTKLEIKRTVAAPSVFIFPPSDEQLKSGTASVVCLLNNFYPREAKVQWKVDNALQSGNSQESVTEQDSKDSTYSLSSTLTLSKADYEKHKVYACEVTHQGLSSPVTKSFNRGEC",0.699 nM
3,"H0610-G1dh/none-Hi-Kn010G3/L0173-k0 (antibody, human IgG1, kappa, single-arm (one Fab)) heavy: not shown EPKSSDKTHTCPPCPAPELLGGPSVFLFPPKPKDTLMISRTPEVTCVVVDVSHEDPEVKFNWYVDGVEVHNAKTKPREEQYNSTYRVVSVLTVLHQDWLNGKEYKCKVSNKALPAPIEKTISKAKGQPREPQVCTLPPSRDELTKNQVSLWCLVKGFYPSDIAVEWESNGQPENNYKTTPPVLDSDGSFFLYSKLTVDKSRWQQGNVFSCSVMHEALHNRYTQKSLSLSP light: DIVMTQSPLSLPVTPGEPASISCRSSQSLVHSNRNTYLHWYQQKPGQAPRLLIYKVSNRFSGVPDRFSGSGSGTDFTLKISRVEAEDVGVYYCGQGTQFPYTFGQGTKLEIKRTVAAPSVFIFPPSDEQLKSGTASVVCLLNNFYPREAKVQWKVDNALQSGNSQESVTEQDSKDSTYSLSSTLTLSKADYEKHKVYACEVTHQGLSSPVTKSFNRGEC",2.83 nM
4,"H0610-G1dh/none-Hi-Kn010G3/L0175-k0 (antibody, human IgG1, kappa, single-arm (one Fab)) heavy: not shown EPKSSDKTHTCPPCPAPELLGGPSVFLFPPKPKDTLMISRTPEVTCVVVDVSHEDPEVKFNWYVDGVEVHNAKTKPREEQYNSTYRVVSVLTVLHQDWLNGKEYKCKVSNKALPAPIEKTISKAKGQPREPQVCTLPPSRDELTKNQVSLWCLVKGFYPSDIAVEWESNGQPENNYKTTPPVLDSDGSFFLYSKLTVDKSRWQQGNVFSCSVMHEALHNRYTQKSLSLSP light: DIVMTQSPLSLPVTPGEPASISCRSSQSLVHSNRNTYLHWYQQKPGQAPRLLIYKVSNRFSGVPDRFSGSGSGTDFTLKISRVEAEDVGVYYCGQGTQHPYTFGQGTKLEIKRTVAAPSVFIFPPSDEQLKSGTASVVCLLNNFYPREAKVQWKVDNALQSGNSQESVTEQDSKDSTYSLSSTLTLSKADYEKHKVYACEVTHQGLSSPVTKSFNRGEC",3.84 nM
5,"H0610-G1dh/none-Hi-Kn010G3/L0181-k0 (antibody, human IgG1, kappa, single-arm (one Fab)) heavy: not shown EPKSSDKTHTCPPCPAPELLGGPSVFLFPPKPKDTLMISRTPEVTCVVVDVSHEDPEVKFNWYVDGVEVHNAKTKPREEQYNSTYRVVSVLTVLHQDWLNGKEYKCKVSNKALPAPIEKTISKAKGQPREPQVCTLPPSRDELTKNQVSLWCLVKGFYPSDIAVEWESNGQPENNYKTTPPVLDSDGSFFLYSKLTVDKSRWQQGNVFSCSVMHEALHNRYTQKSLSLSP light: DIVMTQSPLSLPVTPGEPASISCRSSQSLVHSNRNTYLHWYQQKPGQAPRLLIYKVSNRFSGVPDRFSGSGSGTDFTLKISRVEAEDVGVYYCGQGTQPPYTFGQGTKLEIKRTVAAPSVFIFPPSDEQLKSGTASVVCLLNNFYPREAKVQWKVDNALQSGNSQESVTEQDSKDSTYSLSSTLTLSKADYEKHKVYACEVTHQGLSSPVTKSFNRGEC",3.51 nM
6,"H0610-G1dh/none-Hi-Kn010G3/L0186-k0 (antibody, human IgG1, kappa, single-arm (one Fab)) heavy: not shown EPKSSDKTHTCPPCPAPELLGGPSVFLFPPKPKDTLMISRTPEVTCVVVDVSHEDPEVKFNWYVDGVEVHNAKTKPREEQYNSTYRVVSVLTVLHQDWLNGKEYKCKVSNKALPAPIEKTISKAKGQPREPQVCTLPPSRDELTKNQVSLWCLVKGFYPSDIAVEWESNGQPENNYKTTPPVLDSDGSFFLYSKLTVDKSRWQQGNVFSCSVMHEALHNRYTQKSLSLSP light: DIVMTQSPLSLPVTPGEPASISCRSSQSLVHSNRNTYLHWYQQKPGQAPRLLIYKVSNRFSGVPDRFSGSGSGTDFTLKISRVEAEDVGVYYCGQGTQWPYTFGQGTKLEIKRTVAAPSVFIFPPSDEQLKSGTASVVCLLNNFYPREAKVQWKVDNALQSGNSQESVTEQDSKDSTYSLSSTLTLSKADYEKHKVYACEVTHQGLSSPVTKSFNRGEC",1.08 nM
7,"H0610-G1dh/none-Hi-Kn010G3/L0200-k0 (antibody, human IgG1, kappa, single-arm (one Fab)) heavy: not shown EPKSSDKTHTCPPCPAPELLGGPSVFLFPPKPKDTLMISRTPEVTCVVVDVSHEDPEVKFNWYVDGVEVHNAKTKPREEQYNSTYRVVSVLTVLHQDWLNGKEYKCKVSNKALPAPIEKTISKAKGQPREPQVCTLPPSRDELTKNQVSLWCLVKGFYPSDIAVEWESNGQPENNYKTTPPVLDSDGSFFLYSKLTVDKSRWQQGNVFSCSVMHEALHNRYTQKSLSLSP light: DIVMTQSPLSLPVTPGEPASISCRPSQSPVHSNRNTYLHWYQQKPGQAPRLLIYKVSNRFSGVPDRFSGSGSGTDFTLKISRVEAEDVGVYYCGQGTQVPYTFGQGTKLEIKRTVAAPSVFIFPPSDEQLKSGTASVVCLLNNFYPREAKVQWKVDNALQSGNSQESVTEQDSKDSTYSLSSTLTLSKADYEKHKVYACEVTHQGLSSPVTKSFNRGEC",1.04 nM
8,"H0610-G1dh/none-Hi-Kn010G3/L0201-k0 (antibody, human IgG1, kappa, single-arm (one Fab)) heavy: not shown EPKSSDKTHTCPPCPAPELLGGPSVFLFPPKPKDTLMISRTPEVTCVVVDVSHEDPEVKFNWYVDGVEVHNAKTKPREEQYNSTYRVVSVLTVLHQDWLNGKEYKCKVSNKALPAPIEKTISKAKGQPREPQVCTLPPSRDELTKNQVSLWCLVKGFYPSDIAVEWESNGQPENNYKTTPPVLDSDGSFFLYSKLTVDKSRWQQGNVFSCSVMHEALHNRYTQKSLSLSP light: DIVMTQSPLSLPVTPGEPASISCRSSQPPVHSNRNTYLHWYQQKPGQAPRLLIYKVSNRFSGVPDRFSGSGSGTDFTLKISRVEAEDVGVYYCGQGTQVPYTFGQGTKLEIKRTVAAPSVFIFPPSDEQLKSGTASVVCLLNNFYPREAKVQWKVDNALQSGNSQESVTEQDSKDSTYSLSSTLTLSKADYEKHKVYACEVTHQGLSSPVTKSFNRGEC",1.13 nM
9,"H0610-G1dh/none-Hi-Kn010G3/L0202-k0 (antibody, human IgG1, kappa, single-arm (one Fab)) heavy: not shown EPKSSDKTHTCPPCPAPELLGGPSVFLFPPKPKDTLMISRTPEVTCVVVDVSHEDPEVKFNWYVDGVEVHNAKTKPREEQYNSTYRVVSVLTVLHQDWLNGKEYKCKVSNKALPAPIEKTISKAKGQPREPQVCTLPPSRDELTKNQVSLWCLVKGFYPSDIAVEWESNGQPENNYKTTPPVLDSDGSFFLYSKLTVDKSRWQQGNVFSCSVMHEALHNRYTQKSLSLSP light: DIVMTQSPLSLPVTPGEPASISCRSSQSPVHSNRWTYLHWYQQKPGQAPRLLIYKVSNRFSGVPDRFSGSGSGTDFTLKISRVEAEDVGVYYCGQGTQVPYTFGQGTKLEIKRTVAAPSVFIFPPSDEQLKSGTASVVCLLNNFYPREAKVQWKVDNALQSGNSQESVTEQDSKDSTYSLSSTLTLSKADYEKHKVYACEVTHQGLSSPVTKSFNRGEC",1.22 nM
10,"H0610-G1dh/none-Hi-Kn010G3/L0203-k0 (antibody, human IgG1, kappa, single-arm (one Fab)) heavy: not shown EPKSSDKTHTCPPCPAPELLGGPSVFLFPPKPKDTLMISRTPEVTCVVVDVSHEDPEVKFNWYVDGVEVHNAKTKPREEQYNSTYRVVSVLTVLHQDWLNGKEYKCKVSNKALPAPIEKTISKAKGQPREPQVCTLPPSRDELTKNQVSLWCLVKGFYPSDIAVEWESNGQPENNYKTTPPVLDSDGSFFLYSKLTVDKSRWQQGNVFSCSVMHEALHNRYTQKSLSLSP light: DIVMTQSPLSLPVTPGEPASISCRSSQSPVHSNRNTYIHWYQQKPGQAPRLLIYKVSNRFSGVPDRFSGSGSGTDFTLKISRVEAEDVGVYYCGQGTQVPYTFGQGTKLEIKRTVAAPSVFIFPPSDEQLKSGTASVVCLLNNFYPREAKVQWKVDNALQSGNSQESVTEQDSKDSTYSLSSTLTLSKADYEKHKVYACEVTHQGLSSPVTKSFNRGEC",2.11 nM
11,"H0610-G1dh/none-Hi-Kn010G3/L0204-k0 (antibody, human IgG1, kappa, single-arm (one Fab)) heavy: not shown EPKSSDKTHTCPPCPAPELLGGPSVFLFPPKPKDTLMISRTPEVTCVVVDVSHEDPEVKFNWYVDGVEVHNAKTKPREEQYNSTYRVVSVLTVLHQDWLNGKEYKCKVSNKALPAPIEKTISKAKGQPREPQVCTLPPSRDELTKNQVSLWCLVKGFYPSDIAVEWESNGQPENNYKTTPPVLDSDGSFFLYSKLTVDKSRWQQGNVFSCSVMHEALHNRYTQKSLSLSP light: DIVMTQSPLSLPVTPGEPASISCRSSQSPVHSNRNTYLHWYQQKPGQAPRLLIYKVSNRFRGVPDRFSGSGSGTDFTLKISRVEAEDVGVYYCGQGTQVPYTFGQGTKLEIKRTVAAPSVFIFPPSDEQLKSGTASVVCLLNNFYPREAKVQWKVDNALQSGNSQESVTEQDSKDSTYSLSSTLTLSKADYEKHKVYACEVTHQGLSSPVTKSFNRGEC",0.727 nM
12,"H0610-G1dh/none-Hi-Kn010G3/L0205-k0 (antibody, human IgG1, kappa, single-arm (one Fab)) heavy: not shown EPKSSDKTHTCPPCPAPELLGGPSVFLFPPKPKDTLMISRTPEVTCVVVDVSHEDPEVKFNWYVDGVEVHNAKTKPREEQYNSTYRVVSVLTVLHQDWLNGKEYKCKVSNKALPAPIEKTISKAKGQPREPQVCTLPPSRDELTKNQVSLWCLVKGFYPSDIAVEWESNGQPENNYKTTPPVLDSDGSFFLYSKLTVDKSRWQQGNVFSCSVMHEALHNRYTQKSLSLSP light: DIVMTQSPLSLPVTPGEPASISCRSSQSPVHSNRNTYLHWYQQKPGQAPRLLIYKVSNRFWGVPDRFSGSGSGTDFTLKISRVEAEDVGVYYCGQGTQVPYTFGQGTKLEIKRTVAAPSVFIFPPSDEQLKSGTASVVCLLNNFYPREAKVQWKVDNALQSGNSQESVTEQDSKDSTYSLSSTLTLSKADYEKHKVYACEVTHQGLSSPVTKSFNRGEC",1.01 nM
13,"H0610-G1dh/none-Hi-Kn010G3/L0206-k0 (antibody, human IgG1, kappa, single-arm (one Fab)) heavy: not shown EPKSSDKTHTCPPCPAPELLGGPSVFLFPPKPKDTLMISRTPEVTCVVVDVSHEDPEVKFNWYVDGVEVHNAKTKPREEQYNSTYRVVSVLTVLHQDWLNGKEYKCKVSNKALPAPIEKTISKAKGQPREPQVCTLPPSRDELTKNQVSLWCLVKGFYPSDIAVEWESNGQPENNYKTTPPVLDSDGSFFLYSKLTVDKSRWQQGNVFSCSVMHEALHNRYTQKSLSLSP light: DIVMTQSPLSLPVTPGEPASISCRSSQSPVHSNRNTYLHWYQQKPGQAPRLLIYKVSNRFSGVPDRFSGSGSGTDFTLKISRVEAEDVGVYYCYQGTQVPYTFGQGTKLEIKRTVAAPSVFIFPPSDEQLKSGTASVVCLLNNFYPREAKVQWKVDNALQSGNSQESVTEQDSKDSTYSLSSTLTLSKADYEKHKVYACEVTHQGLSSPVTKSFNRGEC",0.865 nM
